# Source: publication PMC9201380 (2022)
# B1: DL28 (monovalent nanobody) (VHH)
# VHH: QVQLQESGGGLVQAGGSLRLSCAASGSDFSSSTMGWYRQAPGKQREFVAISSEGSTSYAGSVKGRFTISRDNAKNTVYLQMNSLEPEDTAVYYCNVVDRWYDYWGQGTQVTVSA
# Molecular target: SARS-CoV-2 S receptor-binding domain (residues 330-531), Avi-tagged and biotinylated (SARS-CoV-2, UniProt P0DTC2 330-531)
# Assay: BLI
binder,measurement,value
B1,koff,0.000743 s⁻¹
